{"source": "paper PMC8576073", "about": "“Ultra pH‐sensitive detection of total and free prostate‐specific antigen using electrochemical aptasensor based on reduced graphene oxide/gold nanoparticles emphasis on TiO2/carbon quantum dots as a r”", "binders": {"B1": {"name": "thiolated PSA binding DNA aptamer (ssDNA)", "DNA": "TTTTTTTTTTATTAAAGCTCGCCATCAAATAGCTGC", "modifications": "5'-HS (thiol)"}}, "target": "prostate-specific antigen (PSA) (human, UniProt P07288 25-261)", "sequence (P07288 25-261)": "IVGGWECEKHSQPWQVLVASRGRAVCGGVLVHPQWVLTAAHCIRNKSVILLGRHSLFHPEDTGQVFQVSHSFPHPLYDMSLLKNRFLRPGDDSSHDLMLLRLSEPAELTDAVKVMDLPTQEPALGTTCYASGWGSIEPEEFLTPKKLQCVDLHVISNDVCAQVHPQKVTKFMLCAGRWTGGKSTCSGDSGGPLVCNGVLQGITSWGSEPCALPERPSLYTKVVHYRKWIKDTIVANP", "test": "electrochemical aptasensor (CV, SWV, EIS); ferrocyanide or TiO2/CQDs redox probe; 30 min binding; detection 0.5-7 ng/ml; LOD is not a Kd; Aptamer electrode washed with 0.1 mol/L PBS pH 7.0; PSA 30 min; 1.0 mM K3/K4[Fe(CN)6] (1:1), or TiO2/CQDs electrolyte at pH 5.4 and pH 8; temperature not stated", "conditions": "protein: commercial", "data": [{"binder": "B1", "values": [{"measurement": "binding result", "result": "binds"}]}]}
